± gives the uncertainty stated by the source.
B1: GAS2-like protein 1, residues 209 to 276; numbered along this chain, Q99501 (parent)
chain: DELVREILGRCTCPDQFPMIKVSEGKYRVGDSSLLIFVRVLRSHVMVRVGGGWDTLEHYLDKHDPCRC
B2: Ankyrin-1, residues 1405 to 1484; numbered along this chain, P16157 (parent)
chain: MKMAVISEHLGLSWAELARELQFSVEDINRIRVENPNSLLEQSVALLNLWVIREGQNANMENLYTALQSIDRGEIVNMLE

Variants of: B1
Test: abundance fitness (aPCA) (normalised: wild type 0, dead -1); higher = more abundant; growth selection in yeast, the domain comes from the species named
Conditions: Homo sapiens
Work on DELVREILGRCTCPDQFPMIKVSEGKYRVGDSSLLIFVRVLRSHVMVRVGGGWDTLEHYLDKHDPCRW [C68W] yielded an abundance fitness of -0.051 ± 0.086.
In the case of DELVREILGRCTCPDQFPMIKVSEGKYRVGDSSLLIFVRVLRSHVMVRVGGGWDTLEHYLDKHDPCRP [C68P], the abundance fitness is reported as -0.331 ± 0.12.
DELVREILGRCTCPDQFPMIKVSEGKYRVGDSSLLIFVRVLRSHVMVRVGGGWDTLEHYLDKHDPCRS [C68S] showed an abundance fitness of 0.118 ± 0.078.
DELVREILGRCTCPDQFPMIKVSEGKYRVGDSSLLIFVRVLRSHVMVRVGGGWDTLEHYLDKHDPCRN [C68N] showed an abundance fitness of -0.078 ± 0.18.
With DELVREILGRCTCPDQFPMIKVSEGKYRVGDSSLLIFVRVLRSHVMVRVGGGWDTLEHYLDKHDPCRY [C68Y] the abundance fitness was 0.047 ± 0.06.
With DELVREILGRCTCPDQFPMIKVSEGKYRVGDSSLLIFVRVLRSHVMVRVGGGWDTLEHYLDKHDPCRL [C68L] the abundance fitness was 0.132 ± 0.05.
For DELVREILGRCTCPDQFPMIKVSEGKYRVGDSSLLIFVRVLRSHVMVRVGGGWDTLEHYLDKHDPCRI [C68I], the abundance fitness was -0.016 ± 0.21.
Variant DELVREILGRCTCPDQFPMIKVSEGKYRVGDSSLLIFVRVLRSHVMVRVGGGWDTLEHYLDKHDPCRV [C68V] has an abundance fitness of 0.088 ± 0.043.
In the case of DELVREILGRCTCPDQFPMIKVSEGKYRVGDSSLLIFVRVLRSHVMVRVGGGWDTLEHYLDKHDPCRT [C68T], the abundance fitness is reported as 0.225 ± 0.11.

Variants of: B2
Test: as above
Conditions: Homo sapiens
For MKMAVISEHLGLSWAELARELQFSVEDINRIRVENPNSLLEQSVALLNLWVIREGQNANMENLYTALPSIDRGEIVNMLE [Q68P], the abundance fitness was -0.767 ± 0.2.
In the case of MKMAVISEHLGLSWAELARELQFSVEDINRIRVENPNSLLEQSVALLNLWVIREGQNANMENLYTALCSIDRGEIVNMLE [Q68C], the abundance fitness is reported as -0.235 ± 0.17.
Work on MKMAVISEHLGLSWAELAREGQFSVEDINRIRVENPNSLLEQSVALLNLWVIREGQNANMENLYTALQSIDRGEIVNMLE [L21G] yielded an abundance fitness of -0.965 ± 0.17.
With MKMAVISEHLGLSWAELARELQFSVEDINHIRVENPNSLLEQSVALLNLWVIREGQNANMENLYTALQSIDRGEIVNMLE [R30H] the abundance fitness was -0.081 ± 0.22.
For MKMAVISEHLGLSWAELARELQFSVEDINYIRVENPNSLLEQSVALLNLWVIREGQNANMENLYTALQSIDRGEIVNMLE [R30Y], the abundance fitness was -0.298 ± 0.16.
Work on MKMAVISEHLGLSWAELARELQFSVEDINRIRVENPNSLLEQSVALLNLWVIREGQNANMENLYTALQSIDRGQIVNMLE [E74Q] yielded an abundance fitness of -0.45 ± 0.13.
Variant MKMAVISEHLGLSWAELARELQFSVEDINRIRVENPNSLLEQSVALLNLWVIREGQNANMENLYTALQSIDRGDIVNMLE [E74D] has an abundance fitness of 0.16 ± 0.16.
MKMAVISEHLGLSWAELARELQFSVEDINRIRVENPNSLQEQSVALLNLWVIREGQNANMENLYTALQSIDRGEIVNMLE [L40Q] gave an abundance fitness of -0.029 ± 0.17.
Work on MKMAVISEHLGLSWAELARELQFSVEDINRIRVENPNVLLEQSVALLNLWVIREGQNANMENLYTALQSIDRGEIVNMLE [S38V] yielded an abundance fitness of -0.351 ± 0.13.
With MKMAVISEHLGLSWAELARELQFSVEDINRIRVENPNALLEQSVALLNLWVIREGQNANMENLYTALQSIDRGEIVNMLE [S38A] the abundance fitness was -0.258 ± 0.081.
In the case of MKMAVISEHLGLSWAELARELQFSVEDINRIRVENPNSLLEQSVALLNLWVIREGQNANMENLYTALQSIDRYEIVNMLE [G73Y], the abundance fitness is reported as -0.339 ± 0.085.
MKMAVISEHLGLSWAELARELQFSVEDINRIRVENPNSLLEQSVALLNLWVIREGQNANMENLYTALQSIDRAEIVNMLE [G73A] gave an abundance fitness of -0.17 ± 0.038.
For MKMAVISEHLGLSWAELARELQFSVEDINRIRVENPNSLLEQSVALLNLWVIREGQNANMENLYTAFQSIDRGEIVNMLE [L67F], the abundance fitness was -0.788 ± 0.23.
With MKMAVISEHLGLSWAELARELQFSVEDINRIRVENPNSLLEQSVALLNLWVIREGQNANMENLYTALQSIRRGEIVNMLE [D71R] the abundance fitness was 0.008 ± 0.049.
Variant MKMASISEHLGLSWAELARELQFSVEDINRIRVENPNSLLEQSVALLNLWVIREGQNANMENLYTALQSIDRGEIVNMLE [V5S] has an abundance fitness of -0.361 ± 0.062.
Variant MKMADISEHLGLSWAELARELQFSVEDINRIRVENPNSLLEQSVALLNLWVIREGQNANMENLYTALQSIDRGEIVNMLE [V5D] has an abundance fitness of -0.605 ± 0.14.
Work on MKMAVISEHLGLSWAELARELQFSVEDPNRIRVENPNSLLEQSVALLNLWVIREGQNANMENLYTALQSIDRGEIVNMLE [I28P] yielded an abundance fitness of -0.58 ± 0.14.
Variant MKMAVISEHLGLSWAELARELQFSVEDVNRIRVENPNSLLEQSVALLNLWVIREGQNANMENLYTALQSIDRGEIVNMLE [I28V] has an abundance fitness of -0.1 ± 0.051.
For MIMAVISEHLGLSWAELARELQFSVEDINRIRVENPNSLLEQSVALLNLWVIREGQNANMENLYTALQSIDRGEIVNMLE [K2I], the abundance fitness was -0.003 ± 0.096.
MKMAVISEHLGLSWAWLARELQFSVEDINRIRVENPNSLLEQSVALLNLWVIREGQNANMENLYTALQSIDRGEIVNMLE [E16W] gave an abundance fitness of -0.593 ± 0.15.
MKMAVISEHLGLSWAILARELQFSVEDINRIRVENPNSLLEQSVALLNLWVIREGQNANMENLYTALQSIDRGEIVNMLE [E16I] showed an abundance fitness of -0.384 ± 0.13.
Variant MKMAVISEHLGLSWAELARELQFSVEDILRIRVENPNSLLEQSVALLNLWVIREGQNANMENLYTALQSIDRGEIVNMLE [N29L] has an abundance fitness of -0.127 ± 0.059.
MKMAVISEHLGLSWAELARELQFSVEFINRIRVENPNSLLEQSVALLNLWVIREGQNANMENLYTALQSIDRGEIVNMLE [D27F] showed an abundance fitness of -0.436 ± 0.2.
Work on MKMAVISEHLGLSWAELARELQFSVEDINRIRVENPNSLLEQSVALLNLWVIREGQNANMENLYTALQSIDRGEIVNMME [L79M] yielded an abundance fitness of 0.039 ± 0.082.
Work on MKMAVISEHLGLSWAELARELQFSVEDINRILVENPNSLLEQSVALLNLWVIREGQNANMENLYTALQSIDRGEIVNMLE [R32L] yielded an abundance fitness of -0.095 ± 0.056.
Variant MKMAVISEHLGLSWAELARELQFSVEDINRIRVENPNSLLEQSVALLNLWVIREGQNANMENDYTALQSIDRGEIVNMLE [L63D] has an abundance fitness of -0.763 ± 0.38.

Source: the Human Domainome abundance scans (Beltran et al. 2025)
